Source: patent US20140322163A1
Where a chain is given by its changes, count along the chain named. Numbers in names are those of the source.

B1: VRC07 G54H heavy chain complemented with VRC01 light chain (antibody, V domains shown)
VH: QVRLSQSGGQMKKPGDSMRISCRASGYEFINCPINWIRLAPGKRPEWMGWMKPRHGAVSYARQLQGRVTMTRDMYSETAFLELRSLTSDDTAVYFCTRGKYCTARDYYNWDFEHWGQGTPVTVSS
VL: EIVLTQSPGTLSLSPGETAIISCRTSQYGSLAWYQQRPGQAPRLVIYSGSTRAAGIPDRFSGSRWGPDYNLTISNLESGDFGVYYCQQYEFFGQGTKVQVDI
B2: VRC07 G54W heavy chain complemented with VRC01 light chain (antibody, V domains shown)
VH: B1 VH with H55W
VL: B1 VL

Molecular target: HIV-1 Env-pseudoviruses (neutralization panels)
Experiment: cell-based or functional assay

Binder | fold improvement of neutralization over wild type VRC07 (IC50), six-virus panel, TZM-bl [fold] | fold improvement of neutralization over wild type VRC07 (IC80), six-virus panel, TZM-bl [fold] | fold increase of neutralization over VRC01 [fold] | fold increase of neutralization over VRC07 [fold] | fold increase of neutralization potency compared to VRC07 heavy chain with VRC01 light chain [fold] | fold increase of neutralization potency over VRC01 [fold] | fold increase of neutralization potency over VRC07 [fold] | neutralization potency relative to VRC07, panel of 7-12 HIVs [fold] | neutralization potency relative to mature VRC01, panel of 7-12 HIVs [fold]
B1 | 2.3 | 2.5 | 7 | 2.5 | > 2 |  |  |  | 
B2 |  |  |  |  |  | 13 | 4.8 | > 2 | > 8
